Among the data in patent US20220259593A1, “CONTROL OF MAMMALIAN GENE DOSAGE USING CRISPR” (The Regents of the University of California, priority 2019, published 2022) are Mean relative activity values, retold here.

Where a chain is given by its changes, count along the chain named.

The subject of this data set is K562 CRISPRi cells. Put plainly: Constant region variant library pooled growth screen, K562. The settings on record: sgRNA constant region variants. Type of data set: cell-based, human. Summed up: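 K562 CRISPRi, duplicate transductions; puromycin 1 d 0.75 μg/mL then 1 d 0.85 μg/mL; >2000× coverage in spinner flasks; harvests at 4-8 d growth. Activity = phenotype ÷ phenotype with unmodified constant region.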

[1] abbreviates: relative to the original, un-modified constant region cr995 (= 1).
[2] abbreviates: activity relative to the original, un-modified constant region cr995.
The mark [3] stands for this setting: activity relative to the un-modified constant region cr995.

B1: cr023 (nucleic acid)
guide: GTTTAAGGGCTAAGCTGGAAACAGCATAGCAAGTTTAAATAAGGCTAGTCCGTTATCAACTTGAAAAAGTGGCACCGAGTCGGTGCT
modifications: listed as DNA, chemistry not fully specified
The molecule B1 came in with a Mean relative activity under setting [1] of 0.9917.

B2: cr176 (nucleic acid)
guide: B1 guide with G8A, A59G, T70C
modifications: listed as DNA, chemistry not fully specified
Take B2: under setting [2], the Mean relative activity came out at 1.067.

B3: cr918 (nucleic acid)
guide: B1 guide with G8A, A59T, T70A
modifications: listed as DNA, chemistry not fully specified
For the molecule B3, under setting [3], the Mean relative activity was 0.982.

B4: cr973 (nucleic acid)
guide: B1 guide with G8A, G63A
modifications: listed as DNA, chemistry not fully specified
With B4, the Mean relative activity under setting [1] came out at 0.9873.

B5: cr021 (nucleic acid)
guide: B1 guide with G8C
modifications: listed as DNA, chemistry not fully specified
In turn, B5 returned a Mean relative activity under setting [3] of 0.9786.

B6: cr578 (nucleic acid)
guide: B1 guide with G8A, A31G, A65T
modifications: listed as DNA, chemistry not fully specified
As for B6, under setting [3], the Mean relative activity turned out to be 0.9852.

B7: cr843 (nucleic acid)
guide: B1 guide with G8A, A21T
modifications: listed as DNA, chemistry not fully specified
Turning to B7, under setting [3], the Mean relative activity is on record as 0.9823.

B8: cr783 (nucleic acid)
guide: B1 guide with G8A, A59T, T70A, C73A, G85T
modifications: listed as DNA, chemistry not fully specified
In the case of B8, the Mean relative activity under setting [3] came to 0.9779.

B9: cr251 (nucleic acid)
guide: B1 guide with G8A, T54G, A64T, G79C
modifications: listed as DNA, chemistry not fully specified
B9: the Mean relative activity under setting [3] is 0.9836.

B10: cr969 (nucleic acid)
guide: B1 guide with G8A, A59T, A65G, T70A
modifications: listed as DNA, chemistry not fully specified
Molecule B10 gave a Mean relative activity under setting [3] of 0.9815.

B11: cr811 (nucleic acid)
guide: B1 guide with G8A, C25T
modifications: listed as DNA, chemistry not fully specified
As for B11, under setting [3], the Mean relative activity is recorded as 0.9803.

B12: cr609 (nucleic acid)
guide: B1 guide with G8A, A32T, G63A, G79A
modifications: listed as DNA, chemistry not fully specified
With B12, the Mean relative activity under setting [1] was 0.9895.

B13: cr340 (nucleic acid)
guide: B1 guide with G8A, T62G
modifications: listed as DNA, chemistry not fully specified
B13 showed a Mean relative activity under setting [3] of 0.9853.

B14: cr556 (nucleic acid)
guide: B1 guide with G8A, T62C, A67G, G72A, C73T, G85A, C86T
modifications: listed as DNA, chemistry not fully specified
As to B14, under setting [3], the Mean relative activity came out at 0.9785.

B15: cr563 (nucleic acid)
guide: B1 guide with G8A, C60G, T61C, A68G, G69C
modifications: listed as DNA, chemistry not fully specified
For the molecule B15, the Mean relative activity under setting [2] is recorded as 1.068.

B16: cr906 (nucleic acid)
guide: B1 guide with G8A, A65G, C75G, G83C
modifications: listed as DNA, chemistry not fully specified
For B16, under setting [3], the Mean relative activity was found to be 0.9817.

B17: cr238 (nucleic acid)
guide: B1 guide with G8A, A74T, C75T, G83A, T84A
modifications: listed as DNA, chemistry not fully specified
B17 yielded a Mean relative activity under setting [3] of 0.9809.

B18: cr353 (nucleic acid)
guide: B1 guide with G8A, T62A
modifications: listed as DNA, chemistry not fully specified
B18: the Mean relative activity under setting [1] is recorded as 0.9885.

B19: cr270 (nucleic acid)
guide: B1 guide with G8A, A59T, T61C, A68G, T70A, C76T, G82A
modifications: listed as DNA, chemistry not fully specified
With B19, the Mean relative activity under setting [3] was determined as 0.9835.

B20: cr346 (nucleic acid)
guide: B1 guide with G8A, A59C, C60A, G69T, T70G, G72T, C86A
modifications: listed as DNA, chemistry not fully specified
Consider B20, for which, under setting [3], the Mean relative activity amounted to 0.9847.

B21: cr224 (nucleic acid)
guide: B1 guide with G8A, T61C, A68G, C73T, C75T, G83A, G85A
modifications: listed as DNA, chemistry not fully specified
Consider B21, for which the Mean relative activity under setting [3] is listed as 0.9777.

B22: cr670 (nucleic acid)
guide: B1 guide with G8A, T70G
modifications: listed as DNA, chemistry not fully specified
As to B22, the Mean relative activity under setting [1] is listed as 0.9903.

B23: cr653 (nucleic acid)
guide: B1 guide with G8A, C76A, G82T
modifications: listed as DNA, chemistry not fully specified
Take B23: the Mean relative activity under setting [1] is recorded as 0.9907.

B24: cr747 (nucleic acid)
guide: B1 guide with G8A, A59C, A65G, T70G
modifications: listed as DNA, chemistry not fully specified
For B24, the Mean relative activity under setting [3] was 0.9812.

B25: cr970 (nucleic acid)
guide: B1 guide with G8A, A64T, A65T
modifications: listed as DNA, chemistry not fully specified
In turn, B25 registered a Mean relative activity under setting [3] of 0.9826.

B26: cr604 (nucleic acid)
guide: B1 guide with G8A, T46A, A65C
modifications: listed as DNA, chemistry not fully specified
Regarding B26, under setting [1], the Mean relative activity came out at 0.9912.

B27: cr926 (nucleic acid)
guide: B1 guide with G8A, C25A
modifications: listed as DNA, chemistry not fully specified
For B27, the Mean relative activity under setting [3] was found to be 0.9811.

B28: cr754 (nucleic acid)
guide: B1 guide with G8A, G63T
modifications: listed as DNA, chemistry not fully specified
For the molecule B28, the Mean relative activity under setting [3] came to 0.9804.

B29: cr534 (nucleic acid)
guide: B1 guide with G8A, C45T, G48A, G72A, C86T
modifications: listed as DNA, chemistry not fully specified
The molecule B29 returned a Mean relative activity under setting [2] of 1.069.

B30: cr258 (nucleic acid)
guide: B1 guide with G8A, T49A
modifications: listed as DNA, chemistry not fully specified
Under setting [1], B30 yielded a Mean relative activity of 0.9863.

B31: cr671 (nucleic acid)
guide: B1 guide with G8A, A68G
modifications: listed as DNA, chemistry not fully specified
Regarding B31, under setting [1], the Mean relative activity was found to be 0.9864.

B32: cr669 (nucleic acid)
guide: B1 guide with G8A, G79A
modifications: listed as DNA, chemistry not fully specified
Turning to B32, under setting [1], the Mean relative activity amounted to 0.9881.

B33: cr321 (nucleic acid)
guide: B1 guide with G8A, A31C
modifications: listed as DNA, chemistry not fully specified
B33: the Mean relative activity under setting [1] was determined as 0.9906.

B34: cr368 (nucleic acid)
guide: B1 guide with G8A, A59C, C60A, G69T, T70G
modifications: listed as DNA, chemistry not fully specified
B34: the Mean relative activity under setting [3] worked out at 0.9836.

B35: cr624 (nucleic acid)
guide: B1 guide with G8A, A55G
modifications: listed as DNA, chemistry not fully specified
B35 came in with a Mean relative activity under setting [3] of 0.9799.

B36: cr226 (nucleic acid)
guide: B1 guide with G8A, A74C, C75A, G83T, T84G
modifications: listed as DNA, chemistry not fully specified
Take B36: the Mean relative activity under setting [3] is on record as 0.9795.

B37: cr782 (nucleic acid)
guide: B1 guide with G8A, G63T, A65G
modifications: listed as DNA, chemistry not fully specified
B37 gave a Mean relative activity under setting [3] of 0.9816.

B38: cr478 (nucleic acid)
guide: B1 guide with G8A, A28G
modifications: listed as DNA, chemistry not fully specified
As for B38, the Mean relative activity under setting [1] is 0.9898.

B39: cr855 (nucleic acid)
guide: B1 guide with G8A, T46C, A55C, A65C
modifications: listed as DNA, chemistry not fully specified
For the molecule B39, the Mean relative activity under setting [3] was determined as 0.9849.
